The values below come from patent US20120093826A1.

Assay [1] deals with human CADM1 (cell surface, on CADM1-expressing human tumour cells and tissues) (human) (UniProt Q9BY67). Kind of assay: flow cytometry histogram on 786-0 cells, isotype control.
For assay [2] the target is unchanged. Kind of assay: flow cytometry histogram on SKMEL28 cells, isotype control.
For assay [3] the target is unchanged. Nature of the assay: cell-based or functional assay.
Assay [4] shares this target. Kind of assay: flow cytometry on NCI-H69 cells expressing human CADM1. On the technique in general: A flow cytometer gives signals particle by particle.
For assay [5] the target is unchanged. Kind of assay: flow cytometry (FACS Geomean) titration on SKOV3 ovarian cancer cells; the table under the plot prints no unit, nM is the unit of the x axis 'Ab conc in nM'.
Assay [6] shares this target. Kind of assay: flow cytometry histogram on 786-0 cells.
Assay [7] has the same target. Kind of assay: flow cytometry (FGMI) titration on SkMel28 melanoma cells; table under the plot.
For assay [8] the target is unchanged. Nature of the assay: flow cytometry histogram on SKMEL28 cells.
The target is the same in assay [9]. Kind of assay: flow cytometry (FACS Geomean) titration on A549 non-small cell lung cancer cells; the table under the plot prints no unit, nM is the unit of the x axis 'Ab conc in nM'.
Assay [10] shares this target. Kind of assay: flow cytometry (FACS Geomean) titration on A549 non-small cell lung cancer cells.
For assay [11] the target is unchanged. Nature of the assay: flow cytometry (FGMI) titration on 786-O renal cell carcinoma cells; table under the plot.

Chain of UniProt Q9BY67 (Q9BY67 45-442): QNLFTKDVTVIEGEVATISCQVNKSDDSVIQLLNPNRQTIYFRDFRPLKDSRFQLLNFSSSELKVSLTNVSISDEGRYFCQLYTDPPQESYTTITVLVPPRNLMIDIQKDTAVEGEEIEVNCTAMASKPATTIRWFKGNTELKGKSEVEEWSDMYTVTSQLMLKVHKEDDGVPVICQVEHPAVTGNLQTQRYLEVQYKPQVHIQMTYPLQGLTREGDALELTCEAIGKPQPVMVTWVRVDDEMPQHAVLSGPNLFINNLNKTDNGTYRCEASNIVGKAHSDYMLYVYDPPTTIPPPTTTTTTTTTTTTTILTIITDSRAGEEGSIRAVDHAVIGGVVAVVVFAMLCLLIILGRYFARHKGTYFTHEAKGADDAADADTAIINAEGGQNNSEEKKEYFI

Turning to Isotype Control (antibody), in [1], the number in the histogram legend box (name not given; axis FL2-H) was determined as 8.39. For the same molecule, the number in the histogram legend box (name not given; axis FL2-H) in assay [2] worked out at 10.5. In assay [3], the % Specific Lysis: DMS79 (ADCC) turned out to be 2.96% and the % Specific Lysis: NCI-H69 (ADCC) came out at 3.3%.

B1: PTA021_A1 human monoclonal antibody (antibody, V domains shown)
VH: QITLKESGPTLVKPTQTLTLTCTFSGFSLNTSGVGVGWIRQPPGKALEWLALIYWDDDKRYSPSLKSRLTITKDTSKNQVVLTMTNMDPVDTATYYCAHRRVEWVALAGNWFDPWGQGTLVTVSS
VL: DIQMTQSPSSLSASVGDRVTITCRASQGISSWLAWYQQKPEKAPKSLIYGASSLQSGVPSRFSGSGSGTDFTLTISNLQPEDFATYYCQQYNSYPLTFGGGTKVEIK
By EC50 is commonly meant the midpoint of the concentration-response curve. Read a low EC50 as an effect from little substance. For the molecule B1, in [3], the % Specific Lysis: DMS79 (ADCC) was determined as 37.8% and the % Specific Lysis: NCI-H69 (ADCC) turned out to be 24.6%. The 50% effective concentration (EC50) in assay [4] worked out at 0.588 nM.

B2: PTA021_A3 human monoclonal antibody (antibody, V domains shown)
VH: QITLKESGPTLVKPTQTLTLTCTFSGFSLSTSGVGVGWIRQPPGKALEWLALIYWDDDKRYSPSLKSRLTITKDTSKNQVVLTMTNMDPVDTATYYCAHRRVEWVTLAGNWFDPWGQGTLVTVSS
VL: DIQMTQSPSSLSASVGDRVTITCRASQGISSWLAWYQQKPEKAPKSLIYAASSLQSGVPSRFSGSGSGTDFTLTISNLQPEDFATYYCQQYNSYPLTFGGGTKVEIK
In general, EC50 (read off the curve) refers to the concentration needed to bring the measured effect to its halfway point. B2: the EC50 in assay [5] was 12.6 nM; in assay [7] it was 4.42 nM; in [9], 3.65 nM; in [11] it was 3.25 nM; in assay [4], 0.674 nM. For the same molecule, the results for the number in the histogram legend box (name not given; axis FL2-H) in assay [6] and in assay [8] were 42.6 and 25.9, respectively. Further, the half-maximal effective concentration (EC50 (read off the curve)) in assay [10] worked out at 4 nM. In assay [3], this molecule came in with a % Specific Lysis: DMS79 (ADCC) of 61%. In assay [3], this molecule registered a % Specific Lysis: NCI-H69 (ADCC) of 29.8%.

B3: PTA021_A2 human monoclonal antibody (antibody, V domains shown)
VH: QITLKESGPTLVKPTQTLTLTCTFSGFSLSTSGVGVGWIRQPPGKALEWLALIYWDDDKRYSPSLKSRLTITKDTSKNQVVLTMTNMDPVDTAIYYCAHRRVEWFALAGNWFDPWGQGSLVTVSS
VL: DIQMTQSPSSLSASVGDRVTITCRASQGISSWLAWYQQKPEKAPKSLIYAASSLQSGVPSRFSGSGSGTDFTLTISSLQPEDFATYYCQQYNSYPLTFGGGTKVEIK
In assay [3], B3 came in with a % Specific Lysis: DMS79 (ADCC) of 34.7% and a % Specific Lysis: NCI-H69 (ADCC) of 15.9%. In assay [4], the concentration for a half-maximal effect (EC50) turned out to be 0.667 nM.
